# Experiments:
# Test in all cases: cell-based or functional assay
# [1] = molecular target: Hemagglutinin of influenza virus A/Philippines/01/1982 (H3N2) (Influenza A virus A/Philippines/01/1982 (H3N2))
# [2] = molecular target: Hemagglutinin of influenza virus A/Aichi/02/1968-PR8-X31 (H3N2) (Influenza A virus A/Aichi/02/1968-PR8-X31 (H3N2)) (UniProt P03437)
# [3] = molecular target: Hemagglutinin of influenza virus A/Shanghai/01/2013-PR8 (H7N9) (Influenza A virus A/Shanghai/01/2013-PR8 (H7N9))
substance,measurement,setting,value
Irrelevant/negative hIgG1 control (antibody),"IC50 of neutralization, cell viability microneutralization assay on MDCK cells",[1],> 3.33 µM
same,"IC50 of neutralization, cell viability microneutralization assay on MDCK cells",[2],> 0.833 µM
same,"IC50 of neutralization, cell viability microneutralization assay on MDCK cells",[3],> 6.67 µM

# From patent US20210371505A1
